Measurements from article PMC9658990.

Target: T1, HMW-uPA (high molecular weight urokinase), biotinylated for FLAA (human, UniProt P00749;P00749 21-177;179-431)
Assay: FLAA (OliGreen); BPs-T: 50 mM Bis-Tris/HCl pH 6.5, 110 mM NaCl, 5 mM MgCl2, 1 mM CaCl2, 1 mM KCl (printed KCl2), 0.05% Tween 20, 23 °C

Question: TAAGCGGGGGTGAGAGATCTGTCAGTACGAGCTGGGTTTGCG (ssDNA) [Ex-S1] was tested. Which binding signal did it give?
Answer: The binding signal was 36 % signal reduction vs uPAapt-02-FR.

Question: With CAAGCGGGGGTGAGAGATCTGTCAGTACGAGCTTGGTTTGCG (ssDNA) [Ex-S34] as the binder, how does the binding signal read?
Answer: Its binding signal is 0 % signal reduction vs uPAapt-02-FR.

Question: CAAGCGGGGGTGAGAGATCTTTCAGTACGAGCTGGGTTTGCG (ssDNA) [Ex-S21] was tested. Which binding signal did it give?
Answer: The binding signal was 92 % signal reduction vs uPAapt-02-FR.

Question: How did the binding signal turn out when CAAGCGGGTGTGAGAGATCTGTCAGTACGAGCTGGGTTTGCG (ssDNA) [Ex-S9] was run?
Answer: The binding signal was 65 % signal reduction vs uPAapt-02-FR.

Question: With CAAGCGGGGGTGAGAGATCTGTCAGTACGAGCTGGGTTTGCT (ssDNA) [Ex-S42] as the binder, how does the binding signal read?
Answer: Its binding signal is 17 % signal reduction vs uPAapt-02-FR.

Question: Which binding signal does the source give for CAAGCGGGGGTGAGAGATCTGTCAGTACGAGCCGGGTTTGCG (ssDNA) [Ex-S33] here?
Answer: The binding signal was 82 % signal reduction vs uPAapt-02-FR.

Question: With CAAGCGGGGTTGAGAGATCTGTCAGTACGAGCTGGGTTTGCG (ssDNA) [Ex-S10] as the binder, how does the binding signal read?
Answer: The binding signal was 78 % signal reduction vs uPAapt-02-FR.

Question: With CAAGCGTGGGTGAGAGATCTGTCAGTACGAGCTGGGTTTGCG (ssDNA) [Ex-S7] as the binder, how does the binding signal read?
Answer: Its binding signal is 34 % signal reduction vs uPAapt-02-FR.

Question: How did the binding signal turn out when CAAGCGGGGGTGAGAGATCCGTCAGTACGAGCTGGGTTTGCG (ssDNA) [Ex-S20] was run?
Answer: The binding signal was 95 % signal reduction vs uPAapt-02-FR.

Question: With CAAGCGGGGGTGAGAGATTTGTCAGTACGAGCTGGGTTTGCG (ssDNA) [Ex-S19] as the binder, how does the binding signal read?
Answer: Its binding signal is 0 % signal reduction vs uPAapt-02-FR.

Question: CAAGCGGGGGTGAGAGATCTGTCCGTACGAGCTGGGTTTGCG (ssDNA) [Ex-S24] was tested. Which binding signal did it give?
Answer: The binding signal was 98 % signal reduction vs uPAapt-02-FR.

Question: Which binding signal does the source give for CAAGCGGGGGTGAGAGATCTGTCAGTACGAGCTGGGTCTGCG (ssDNA) [Ex-S38] here?
Answer: The binding signal was 53 % signal reduction vs uPAapt-02-FR.

Question: CAAGCGGGGGTGAGAGATCTGTCAGTACTAGCTGGGTTTGCG (ssDNA) [Ex-S29] was tested. Which binding signal did it give?
Answer: The binding signal was 47 % signal reduction vs uPAapt-02-FR.

Question: Which binding signal does the source give for CAAGCGGGGGTGAGAGATCTGTCAGTACGAGCTGTGTTTGCG (ssDNA) [Ex-S35] here?
Answer: The binding signal was 27 % signal reduction vs uPAapt-02-FR.

Question: CAAGCTGGGGTGAGAGATCTGTCAGTACGAGCTGGGTTTGCG (ssDNA) [Ex-S6] was tested. Which binding signal did it give?
Answer: The binding signal was 50 % signal reduction vs uPAapt-02-FR.

Question: How did the binding signal turn out when CAAGCGGGGGCGAGAGATCTGTCAGTACGAGCTGGGTTTGCG (ssDNA) [Ex-S11] was run?
Answer: Its binding signal is 91 % signal reduction vs uPAapt-02-FR.

Question: For CAAGCGGGGGTGAGAGATCTGTCAGTACGAGTTGGGTTTGCG (ssDNA) [Ex-S32], which binding signal is on record?
Answer: The binding signal was 63 % signal reduction vs uPAapt-02-FR.

Question: With CAAGCGGGGGTGCGAGATCTGTCAGTACGAGCTGGGTTTGCG (ssDNA) [Ex-S13] as the binder, how does the binding signal read?
Answer: Its binding signal is 97 % signal reduction vs uPAapt-02-FR.

Question: Which binding signal does the source give for CAAGCGGGGGTGATAGATCTGTCAGTACGAGCTGGGTTTGCG (ssDNA) [Ex-S14] here?
Answer: The binding signal was 91 % signal reduction vs uPAapt-02-FR.

Question: CAAGTGGGGGTGAGAGATCTGTCAGTACGAGCTGGGTTTGCG (ssDNA) [Ex-S5] was tested. Which binding signal did it give?
Answer: Its binding signal is 56 % signal reduction vs uPAapt-02-FR.

Question: With CAAGCGGGGGTGAGAGATCTGTCAGTACGAGCTGGTTTTGCG (ssDNA) [Ex-S36] as the binder, how does the binding signal read?
Answer: The binding signal was 11 % signal reduction vs uPAapt-02-FR.

Question: With CAAGCGGGGGTGAGCGATCTGTCAGTACGAGCTGGGTTTGCG (ssDNA) [Ex-S15] as the binder, how does the binding signal read?
Answer: The binding signal was 89 % signal reduction vs uPAapt-02-FR.

Question: With CAAGCGGGGGTGAGAGATCTGTCAGTACGCGCTGGGTTTGCG (ssDNA) [Ex-S30] as the binder, how does the binding signal read?
Answer: The binding signal was 89 % signal reduction vs uPAapt-02-FR.

Question: How did the binding signal turn out when CAAGCGGGGGTGAGAGATCTGTCATTACGAGCTGGGTTTGCG (ssDNA) [Ex-S25] was run?
Answer: Its binding signal is 99 % signal reduction vs uPAapt-02-FR.

Question: CAAGCGGGGGTGAGAGATCTGTCAGTCCGAGCTGGGTTTGCG (ssDNA) [Ex-S27] was tested. Which binding signal did it give?
Answer: The binding signal was 100 % signal reduction vs uPAapt-02-FR.

Question: CAAGCGGGGGTGAGAGATCTGTCAGTACGAGCTGGGTTCGCG (ssDNA) [Ex-S39] was tested. Which binding signal did it give?
Answer: Its binding signal is 65 % signal reduction vs uPAapt-02-FR.

Question: Which binding signal does the source give for CAAGCGGGGGTGAGAGATCTGCCAGTACGAGCTGGGTTTGCG (ssDNA) [Ex-S22] here?
Answer: Its binding signal is 99 % signal reduction vs uPAapt-02-FR.

Question: With CAAGCGGGGGTGAGAGATCTGTTAGTACGAGCTGGGTTTGCG (ssDNA) [Ex-S23] as the binder, how does the binding signal read?
Answer: Its binding signal is 13 % signal reduction vs uPAapt-02-FR.

Question: With CAATCGGGGGTGAGAGATCTGTCAGTACGAGCTGGGTTTGCG (ssDNA) [Ex-S4] as the binder, how does the binding signal read?
Answer: Its binding signal is 85 % signal reduction vs uPAapt-02-FR.

Question: With CAAGCGGTGGTGAGAGATCTGTCAGTACGAGCTGGGTTTGCG (ssDNA) [Ex-S8] as the binder, how does the binding signal read?
Answer: Its binding signal is 94 % signal reduction vs uPAapt-02-FR.

Question: For CAAGCGGGGGTGAGAGATCTGTCAGTACGATCTGGGTTTGCG (ssDNA) [Ex-S31], which binding signal is on record?
Answer: The binding signal was 100 % signal reduction vs uPAapt-02-FR.

Question: Which binding signal does the source give for CACGCGGGGGTGAGAGATCTGTCAGTACGAGCTGGGTTTGCG (ssDNA) [Ex-S3] here?
Answer: The binding signal was 18 % signal reduction vs uPAapt-02-FR.

Question: CAAGCGGGGGTGAGATATCTGTCAGTACGAGCTGGGTTTGCG (ssDNA) [Ex-S16] was tested. Which binding signal did it give?
Answer: The binding signal was 72 % signal reduction vs uPAapt-02-FR.

Question: How did the binding signal turn out when CAAGCGGGGGTGAGAGATCTGTCAGCACGAGCTGGGTTTGCG (ssDNA) [Ex-S26] was run?
Answer: Its binding signal is 89 % signal reduction vs uPAapt-02-FR.

Question: For CAAGCGGGGGTGAGAGCTCTGTCAGTACGAGCTGGGTTTGCG (ssDNA) [Ex-S17], which binding signal is on record?
Answer: Its binding signal is 16 % signal reduction vs uPAapt-02-FR.

Question: With CAAGCGGGGGTGAGAGACCTGTCAGTACGAGCTGGGTTTGCG (ssDNA) [Ex-S18] as the binder, how does the binding signal read?
Answer: The binding signal was 94 % signal reduction vs uPAapt-02-FR.

Question: CAAGCGGGGGTGAGAGATCTGTCAGTACGAGCTGGGTTTGTG (ssDNA) [Ex-S41] was tested. Which binding signal did it give?
Answer: Its binding signal is 3 % signal reduction vs uPAapt-02-FR.

Question: With CAAGCGGGGGTGAGAGATCTGTCAGTACGAGCTGGGTTTTCG (ssDNA) [Ex-S40] as the binder, how does the binding signal read?
Answer: The binding signal was 3 % signal reduction vs uPAapt-02-FR.

Question: CAAGCGGGGGTGAGAGATCTGTCAGTATGAGCTGGGTTTGCG (ssDNA) [Ex-S28] was tested. Which binding signal did it give?
Answer: Its binding signal is 95 % signal reduction vs uPAapt-02-FR.

Target: T1, HMW-uPA (high molecular weight …)
Assay: as above
Remark: another data set of the same source

Question: Does CAAGCGGGGGTTAGAGATCTGTCAGTACGAGCTGGGTTTGCG (ssDNA) [Ex-S12] bind?
Answer: Result: binds

Question: Does CCAGCGGGGGTGAGAGATCTGTCAGTACGAGCTGGGTTTGCG (ssDNA) [Ex-S2] bind?
Answer: Result: binds

Question: Does CAAGCGGGGGTGAGAGATCTGTCAGTACGAGCTGGGCTTGCG (ssDNA) [Ex-S37] bind?
Answer: Result: binds
